Experimental data from the DeepSol protein solubility set.

Test: soluble on expression in E. coli; label from the status in PepcDB or PDB records

Sequence	soluble on expression in E. coli
MAYCNPGLESRPNKRNALRRHVVTGIGMKIVIAPDSYKESLSASEVAQAIEKGFREIFPDAQYVSVPVADGGEGTVEAMIAATQGAERHAWVTGPLGEKVNASWGISGDGKTAFIEMAAASGLELVPAEKRDPLVTTSRGTGELILQALESGATNIIIGIGGSATNDGGAGMVQALGAKLCDANGNEIGFGGGSLNTLNDIDISGLDPRLKDCVIRVACDVTNPLVGDNGASRIFGPQKGASEAMIVELDNNLSHYAEVIKKALHVDVKDVPGAGAAGGMGAALMAFLGAELKSGIEIVTTALNLEEHIHDCTLVITGEGRIDSQSIHGKVPIGVANVAKKYHKPVIGIAGSLTDDVGVVHQHGIDAVFSVLTSIGTLDEAFRGAYDNICRASRNIAATLAIGMRNAG	soluble
MSFRETFLNNKFKFACRDSFLIEYYLEECYMSKKIINVVAAAIEKDGKIFCAQRPEGKSLGGYWEFPGGKLKEGESPEEALIREIYEELNSKIEIISFVNEASYDYDFGTVVMKTFHAKLVCGNLDLLEHQDSVWLEPSRLKTLNWAPVDRPAVELLSKEGHHHHHH	soluble
MSLTMPVNTIMGLFAKSPIKPLQRHVVCVNECCSHLINFFEVCNKGDWEKAGEIRAQISHLEKEADVLKREIRLKLPRGLFMPVDRSDMLELLTQQDKLANLAKDIAGRVYGRQLVIPEPLQENFIAYVRRCLDAANQAQNVINELDELLETGFKGREVTLVAEMIHQLDVIEDDTDSMQIRLRQQLMAIESKMNPIDVMFLYKILEWVGGIADQAQRVGARLELMLSRSEGHHHHHH	soluble
MGSDKIHHHHHHMSYELARVPRGEHHFHSVRVRTGDVLGLIEKTAFFELDDTLFVYPFYQRFSYQVNERHQEDGVSGSSPIHQHHSSVAASVRNYQPGDRFAALDWKTSARRSQLMTKEFEPSRSKNLFLLMDRFSSDAFEEVVSVTASILHSVLKNGAGAGLASIGKEKNIFPIQEGDQHFKHMLRHLAIAHCDAADPISRYAREELGKPSVRQADQVVVTGQLTEDMLHLAEIGGGRVTVILAKEKDAELSQAENVMIERMMKRQIRVRIMRGGRVSRVV	not soluble
MSLDNHNPKKSTTPNNEFHKKIATTGKIINLPKQSIVPAVSISVYNDMKTIVLTPMEFQLSSIGFQFQNLIIDLPHSTISTNCITFYYHQDHILIDLIDQNYLFITLKIAIDRFILGGQQLTLDNFEEWGYISVPYSFELRSSPFLLKCLDNLNLIVSLKDGGLLHFKRDEELGEINVFNFQEQGTLIPFLGFFGSGKQKDVVLDGVSSNSIVDALQIGGSGVVITLSVNKVLKLWNLDGHQNLSSLTIASDDNTWLPTIPSKYLKSYDQEDGKTIITLFINTKSGDSSKSMFVFKSFELESSNEGHHHHHH	not soluble
MGSDKIHHHHHHMGNTQWQRLLQIEIHDKNGKNRVLLRADSGRLDRLEIHFTAPFSDSPNPSEVSVTIYNLNKKSIDFIKKGNPVYIHAGYAGTSNGVITSGTIAEVKPSVLNGVDRATTFTFLEGKDYSEQKEVNITFNNGTDAHTIINRVAREANIPLSEIKLKNNKIYGSGYTADGQAMMVLEEISKACDTSLYFKRGQLVIKNFRDGNKERYRLSPETGLINQPTKVESHDYTGWSVECLLQHKITTGTAVYIDSKNVKGNFYVKNGQHSYDGSRFVTTCEVVT	not soluble
GMGKGKSAIESQIRMLKLAKEIVEEVASSFPNLEEVYIFGSRARGDYLDTSDIDILFVFKGIKEMNVFDRMYMVSRFIRGNVDYIVLDEGEKDRVKDKVLFWKREKGFVLL	soluble
MVLKSKGSVLDLEHDNQTLKDYISVFERNKMRLTQSRLMLLQCLVQHRDWHTLAELKHHLEQNQQRTTLASIYNNLKIFAKLKLINIFVDTNRFETYYCLRHENHKHIYFFDENQRKFLTLPLQDKEALSLIGHKSKHGKIKLNDFYIVASGTLEDDQ	soluble
MGHHHHHHSHPRRLAWCSIDWEQVCLLQRLGAGGFGSVYKATYRGVPVAIKQVNKCTKNRLASRRSFWAELNVARLRHDNIVRVVAASTRTPAGSNSLGTIIMEFGGNVTLHQVIYGAAGHPEGDAGEPHCRTGGQLSLGKCLKYSLDVVNGLLFLHSQSIVHLDLKPANILISEQDVCKISDFGCSEKLEDLLCFQTPSYPLGGTYTHRAPELLKGEGVTPKADIYSFAITLWQMTTKQAPYSGERQHILYAVVAYDLRPSLSAAVFEDSLPGQRLGDVIQRCWRPSAAQRP	not soluble
MLKPETIHISGPAGILETIHIPSEQVPARGVAVINHPNPLQGGTNTNKVIQTAAKALSKLGFHCYLPNLRGVGGSGGTHDYGRGETQDCLAVIDYARAQHPEAPEFALSGFSFGGYVATFAAQARTPDLLLLIGAAVCHYTDRPEPSAVPNVAKTLMIHGAEDEVVEIGKALKWAEPQDLPVITIAGSTHFFHGKLIVLRDTILRFAPVCLNG	not soluble
SLTASIVYLNNVRLETGFAKDHHELTYTKTARYTLAIQEGKIQAIIPQNQVTEKQQGTDLNGQLAIPAFQESHNHLDKTYLSLGWRASQPVKNLKERLADEASELKLLAPSTEQRATAMIEKLIGYGASYIRTHVNIDPYVELENFWGVKRALEKYAHVIDYDIVVFPQHGLLKNPQTVLLMREALKNGGTMVGGLDPAGIDYAIEESLETIFDLAEEFQVGIDIHLHDTGEVGVYTIDKFLDILEERKFTQRTAISHAFALLDVRPAEKEKLYQRLATHQTAIMSTIPYDPRYLLPPIDVLRQAGVSVHLGSDGFFDSWSSNVSGDLFEKLRNFCEMTGKITEEQLTQAYVHGCGKVAPFSFEEERLWFTEGDEANFIFTEAASTAEVIARKPQKRQIMLKGQWV	soluble
MSLGKDVRFHTENWSYYPWRLWAEQFLQFEDWCLQASSKVPGIPLHVKRTVTFSTRQILDALSPSNFVLTNPDLLQETIRSNGQNLIRGTELAFQDFVEKITGSPPAGVENFIPGKQVAVTEGKVVYSNHLIELIQYTPQTEKVYKEPILILPAWIMKYYILDLLPENSLVNWLVRQGHTVFIVSWRNPTKEDRNIGLDDYYKLGAMDAINAVSNAIPHTKIHLMGYCLGGTLALLTAAAMAHDHDNRLKTLSLLAAQGDFIDAGELLLFITKSEVSFLKSMMWEQGYLDTKQMSGTFQMLRSYDLIWSKMVQDYMHGTQRGMIPLLAWNADATRMPYKMHSEYLEKLFLNNDFAEGRFILDGKPVVGENIRMPAFVVSTEKDHVAPWKSVYKTHLLINSDITFVLTNGGHNAGIVSEPGHEGRYYRIRERKMDSTYLDPTNWLKKAELREGSWWIAWHDWLVNHSSQKQVSAPKLDKNLPNAPGKYVLQKEGHHHHHH	soluble
MKKEIIVYTISDSLGETSQKLLAAASAQYPDISFLNRYNFSFVTTEEELLEILKDALKDKALVVSTLVSKQLITAAKEFSERTGLLYLDLMAPFFELIQAKAGVDPIEEPGRRHQLDRAYFDKISAIEFAVKYDDGKNPQGFLDSDILLLGVSRTSKTPVSMYLANQGYRVSNLPLIPEVPLPPILEEMDPQKMIGLVCSPETLGQIRSSRLASLGLGNETSYTNVERIEQELAYAEEIFAKYGIPVIDVTAKSVEETAFLIKEKLDERNLEHHHHHH	soluble
SYSKTNEAAIEKTRHIANAAVYGRPEYRYNGALNLHYRPKRTDSTLLLNGGMNLNGEVLIEGGNMIVSGRPVPHAYDHQAKREPVLENEWTDGSFKAARFTLRNHARLTAGRNTAHLDGDITAYDLSGIDLGFTQGKTPECYRSYHSGSTHCTPNAVLKAENYRALPATQVRGDITLNDRSELRLGKAHLYGSIRAGKDTAVRMEA	not soluble
MSDQPIVLTSFYPKEGGARDKILLDGKNFGTDVSKIKVYFNNARASVVSSSGSRIYAIVPRLPGDNPRISVVVDTDSVAYEETYAYHTQALVSTVTGNGETSFLAGTLSTAQVYGKYLDLDAEGNLFMSWRDGGTFGIARINEQQNIVTPLIEADAANRILYANGLTVDRATGMLTAAHESVKEVTFTFDPREAWYPRQRNIKYSQSDLNSIVDADRYKNFVTFCPYDGYLYTRYRDGKIAKIDPNTFEGHIIHQGPSGSQYGQAINPAKPWLLYITLHSNAPTAYRQGISVLDLRDPDGTGGFKRLNAPGGSAFRDGPIEDALFNYPKDIKFDNDGNMFVADYGNHCIRMISADNIVTTVAGQPGVAGYKDGGPVESLFKNPWGVAVNEQGDIYIADWGNARIRKLVIELEHHHHHH	soluble
MQFGIFTIGDVTVDPTTGKAPTEGERIHAMTQIALKAEEVGLDVFATGEHHNPPFVPSSPTTHLAYIAAKTEKLLLSTSTTLITTNDPVKIAEDYTFLQHLSGGRVDLMMGRGNTGPVYPWFGKDIHQGIPLAIENYHLLRRLWREDVVNWQGKFRTPLQGYTSTPAPLDGVAPFVWHGSIRSTEIAEQAAFYGDGFFHNNIFWNKEHTAQMVNLYRQRFEHYGHGQADQAIVGLGGQVFIGDSEEEAKKTFRPYFDNAPVYGHGPSLEDFSRLTPLTVGTAEQVIERTMEFADWVGDYQRQLFLIDHAGLPLEMVLDQIERLGHDVVPEVRRRMEERRPDHVPSNPPTHQSLKANRNSPHFQINPGQPTE	not soluble
MGSDKIHHHHHHMVEHRGFDVLSLPWLDVPRQAFLTQLQTQKVPHAQLVGIDSAYGGELLSVFMARAAMCSQPTHTGGCGFCKSCQLFDAGNHPDFYQIEADGHQIKVDQIRELCSRLSATAQQSGRRVAIIHHSERLNSASANALLKTLEEPGKDTLLLLHSDTPARLMATISSRCQRLPFVAPSKTLIKNWLIQQCQIQEDVTWCLSVVGGPLKLAESLQSNSTQPSRYQTLLGFRKDWAQSLSSGHLCASLLIISEQQIIDALKVLYLLLRQILLKNGNQDAYVQAQIGNLAAKVMGMCHSLSAMPSVNYLGLCQSYVLEYRDITNK	not soluble
MSDSWTERWNDRYSNEIFAYGEKPNNYLKAQLENLQPGTILFAAEGEGRNAVFAACLGWDVQAFDISSEGKKKAFQLAEKNQVTIAYQVGQLETLGYTAGQFDALALIYAHFPATVKSAYHRILSSYVRSGGYIIFEAFSKKHLDYLAKNEQVGGPKEFDMLFSIEEIKADFPDYEILELEEKEIELNEGQFHNGTGSVIRFTGRKKLEHHHHHH	not soluble
MGSDKIHHHHHHMTQVIPPRCDTCACDDADWCHLQETTKLLLLATAQIELSLTDGDHNVTGLGQLFTQMAGHLTEVNRHLHGTADTPAAILAHSDSLMQAIDSGVMAFQFYDRISQRLNHVITALSLMEAMLGDEQRRHSQAAWTNLQGEIQAHYSLDCERQMFAALLEGVPIHEALNAYRETHLHQTKQDVELF	not soluble
MPLLCALIVGGLFGTSQAQAGGFMVPTTNTAGWGRAMAGGSLFPNDPSAAFNNPAAMAFIDKRIAQLTVNYADIDIKYNGDAYDYQGNPMTGGYQDGPGTPELGTNDGGQAGFGAWLPTGFLVVPINDRFAFGLSQVVPMGMRSTWDPNWKGRDFAVDTKIETIGLTGSLSFKVNDNFSLGAGVIIQRTSGFVSQNLDLYASAANSPGMGGIPFPASNSSALMRVKVDNTSPGFFAGAVWKPTDRDTLGFAYHAKIRNKLKGHYNLYDHDGGLTEGAIEGGTPGLAYPGLDLRMGASASARLDIPAYASLDWVHQFNDRLSLGASATWTEWSSFQDLTLKSHGNTIVSIPYTYRNTWTLAVGGDYKVTDQWTMRAGVAYDQTPTHNATRDPRIPDGDRYFASLGAGYRFQSMPELSIDAAYSRQFVKEVPLKTVNQDRLGGGRLDGRATSKGQVFSLSATYDF	not soluble
